Measurements reported in US20200317768A1 (published 2020).

T1: Cynomolgus monkey latent myostatin (cynomolgus monkey, UniProt Q95J86 25-266; Q95J86 267-375)
T1 construct: Latent form = complex of two propeptides and the mature dimer; also called Cyno latent myostatin
T1 sequence 1: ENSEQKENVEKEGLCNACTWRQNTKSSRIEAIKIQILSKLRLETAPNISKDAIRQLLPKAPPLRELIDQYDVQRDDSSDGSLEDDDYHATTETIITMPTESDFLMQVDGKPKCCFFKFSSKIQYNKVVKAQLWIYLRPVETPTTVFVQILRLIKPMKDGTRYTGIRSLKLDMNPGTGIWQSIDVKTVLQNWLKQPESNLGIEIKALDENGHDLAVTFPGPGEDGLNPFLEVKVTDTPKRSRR
T1 sequence 2: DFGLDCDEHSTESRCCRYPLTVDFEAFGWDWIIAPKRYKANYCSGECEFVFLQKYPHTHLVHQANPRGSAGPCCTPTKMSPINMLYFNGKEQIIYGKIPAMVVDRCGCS

T2: Human latent myostatin (human, UniProt O14793 25-266; O14793 267-375)
T2 construct: also called human myostatin latent form
T2 sequence 1: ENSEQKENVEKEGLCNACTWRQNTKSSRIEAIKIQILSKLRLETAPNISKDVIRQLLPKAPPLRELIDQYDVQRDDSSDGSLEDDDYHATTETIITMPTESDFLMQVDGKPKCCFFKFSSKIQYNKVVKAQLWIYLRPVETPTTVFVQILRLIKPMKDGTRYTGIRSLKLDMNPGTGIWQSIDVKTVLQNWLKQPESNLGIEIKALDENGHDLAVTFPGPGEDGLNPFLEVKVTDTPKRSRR
T2 sequence 2: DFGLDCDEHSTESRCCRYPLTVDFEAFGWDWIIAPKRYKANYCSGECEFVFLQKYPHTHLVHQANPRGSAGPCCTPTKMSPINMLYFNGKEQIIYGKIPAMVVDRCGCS

T3: Mouse latent myostatin (mouse, UniProt O08689 26-267; O08689 268-376)
T3 construct: Latent form = complex of two propeptides and the mature dimer
T3 sequence 1: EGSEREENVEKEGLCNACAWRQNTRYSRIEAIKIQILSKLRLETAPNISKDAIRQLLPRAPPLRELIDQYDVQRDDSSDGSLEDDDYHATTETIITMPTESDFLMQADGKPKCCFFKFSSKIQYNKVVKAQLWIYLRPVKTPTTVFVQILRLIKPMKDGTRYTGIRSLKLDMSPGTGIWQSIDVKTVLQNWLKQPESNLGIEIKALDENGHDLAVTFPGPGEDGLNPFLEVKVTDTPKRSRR
T3 sequence 2: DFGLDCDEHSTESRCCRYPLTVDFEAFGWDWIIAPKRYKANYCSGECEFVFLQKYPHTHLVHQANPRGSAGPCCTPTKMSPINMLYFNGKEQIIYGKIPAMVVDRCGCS


How the values were obtained:
[1] = molecular target: T1, Cynomolgus monkey latent myostatin; assay: SPR (BIACORE T200) 37C, pH 7.4, antibody captured by ProA/G
Protocol: (§1) ProA/G (Pierce) was immobilized onto all flow cells of a CM4 chip using an amine coupling kit (GE Healthcare). All antibodies and analytes were prepared in ACES pH7.4 or pH5.8 buffer containing 20 mM ACES, 150 mM NaCl, 1.2 mM CaCl₂, 0.05% TWEEN®) 20, 0.005% NaN₃. […] Human, cyno, and mouse latent myostatin was injected at 3.125 to 50 nM prepared by two-fold serial dilution, followed by dissociation. The sensor surface was regenerated each cycle with 10 mM Glycine HCl pH1.5. Binding affinity was determined by processing and fitting the data to a 1:1 binding model using BIACORE® T200 Evaluation software, version 2.0 (GE Healthcare).

Human latent myostatin [2] = molecular target: T2, Human latent myostatin; assay: as above
Protocol: as §1

Mouse latent myostatin [3] = molecular target: T3, Mouse latent myostatin; assay: as above
Protocol: as §1

[4] = molecular target: T1, Cynomolgus monkey latent myostatin; assay: SPR 37C; KD pH 5.8 / KD pH 7.4
Protocol: as §1

Human latent myostatin [5] = molecular target: T2, Human latent myostatin; assay: SPR 37C; KD pH 5.8 / KD pH 7.4
Protocol: as §1

Mouse latent myostatin [6] = molecular target: T3, Mouse latent myostatin; assay: SPR 37C; KD pH 5.8 / KD pH 7.4
Protocol: as §1

[7] = molecular target: T1, Cynomolgus monkey latent myostatin; assay: SPR (BIACORE T200) 37C, pH 5.8, antibody captured by ProA/G
Protocol: as §1

Human latent myostatin [8] = molecular target: T2, Human latent myostatin; assay: as above
Protocol: as §1

Mouse latent myostatin [9] = molecular target: T3, Mouse latent myostatin; assay: as above
Protocol: as §1

Kd [1] [nM]	Kd (Human latent myostatin [2]) [nM]	Kd (Mouse latent myostatin [3]) [nM]	ratio of KD at pH 5.8/pH 7.4 [4]	ratio of KD at pH 5.8/pH 7.4 (Human latent myostatin [5])	ratio of KD at pH 5.8/pH 7.4 (Mouse latent myostatin [6])	Kd [7] [nM]	Kd (Human latent myostatin [8]) [nM]	Kd (Mouse latent myostatin [9]) [nM]	Binder
0.339	0.275	0.319	102	168	97	34.7	46.2	30.8	MS_M103205H1004-SG1/M103202L889-SK1 (antibody, human IgG1, kappa, V domains shown, also called MS1032LO07-SG1) VH: QVTLKESGPVLVKPTETLTLTCTVSGIDLSHDDISWVRQAPGKGLEWVGIISYAGSMYYASWAKGRLTISKDTSKNQVVLTMTNMDPVDTATYYCARGVPAYSHGGDKWGQGTLVTVSS VL: DIVMTQSPATLSLSPGERATLSCTSSQSVYHANWLSWFQQKPGQPPKLLIYWASTLAYGVPSRFSGSGSGTDFTLTISSLQPEDAATYYCAGGYGGGRYAFGQGTKVEIKR
0.502	0.419	0.362	87	341	81	43.5	143	29.2	MS_M103205H1047-SG1/M103202L889-SK1 (antibody, human IgG1, kappa, V domains shown, also called MS1032LO11-SG1) VH: QVTLKESGPVLVKPTETLTLTCTVSGIDLSHTDISWVRQAPGKGLEWVGIISYAGKKYYASWAKGRLTISKDTSKNQVVLTMTNMDPVDTATYYCARGVPAYSHGGDLWGQGTLVTVSS VL: DIVMTQSPATLSLSPGERATLSCTSSQSVYHANWLSWFQQKPGQPPKLLIYWASTLAYGVPSRFSGSGSGTDFTLTISSLQPEDAATYYCAGGYGGGRYAFGQGTKVEIKR
0.492	0.407	0.413	73	209	60	35.8	84.9	24.8	MS_M103205H1057-SG1/M103202L889-SK1 (antibody, human IgG1, kappa, V domains shown, also called MS1032LO12-SG1) VH: QVTLKESGPVLVKPTETLTLTCTVSGIDLSHTDISWVRQAPGKGLEWVGIISYAGSKYKASWAKGRLTISKDTSKNQVVLTMTNMDPVDTATYYCARGVPAYSHGGDLWGQGTLVTVSS VL: DIVMTQSPATLSLSPGERATLSCTSSQSVYHANWLSWFQQKPGQPPKLLIYWASTLAYGVPSRFSGSGSGTDFTLTISSLQPEDAATYYCAGGYGGGRYAFGQGTKVEIKR
0.299	0.26	0.266	26	62	24	7.71	16.1	6.4	MS_M103245H1233-SG1/M103202L1045-SK1 (antibody, human IgG1, kappa, V domains shown, also called MS1032LO23-SG1) VH: QVTLKESGPVLVKPTETLTLTCKVSGIDLSHEDISWVRQAPGKGLEWVSIISYAGSTYYASWAKGRLTISKDTSKNQVVLTMTNMDPVDTATYYCARGVPAYSHGGDLWGQGTLVTVSS VL: DIVMTQSPATLSLSPGERATLSCTTSQSVYHENWLSWFQQKPGQPPKLLIYWASTLAYGVPSRFSGSGSGTDFTLTISSLQPEDAATYYCAGGYGGGRYAFGQGTKVEIKR
